# In patent US20140100265:
# Target: ribosomal protein S6, P62754
protein,measurement,value
"hp70S6K (delC/T389E), constitutively active form of human p70S6K protein (protein) MAGVFDIDLDQPEDAGSEDELEEGGQLNESMDHGGVGPYELGMEHCEKFEISETSVNRGPEKIRPECFELLRVLGKGGYGKVFQVRKVTGANTGKIFAMKVLKKAMIVRNAKDTAHTKAERNILEEVKHPFIVDLIYAFQTGGKLYLILEYLSGGELFMQLEREGIFMEDTACFYLAEISMALGHLHQKGIIYRDLKPENIMLNHQGHVKLTDFGLCKESIHDGTVTHTFCGTIEYMAPEILMRSGHNRAVDWWSLGALMYDMLTGAPPFTGENRKKTIDKILKCKLNLPPYLTQEARDLLKKLLKRNAASRLGAGPGDAGEVQAHPFFRHINWEELLARKVEPPFKPLLQSEEDVSQFDSKFTRQTPVDSPDDSTLSESANQVFLGFEYVAPSVLES",phosphorylation of ribosomal protein S6 (immunoperoxidase staining of SN sections after AAV transduction),hp70S6K(CA) induces a detectable increase in phosphorylation of ribosomal protein S6
